Assay results reported in patent publication US20090325867A1, “RECEPTOR-SPECIFIC TUMOUR NECROSIS FACTOR-RELATED APOPTOSIS-INDUCING LIGAND (TRAIL) VARIANTS” (MEDICAL RESEARCH COUNCIL, priority 2005, published 2009).

What was measured:
[1] = tested on: primary MCL cells; assay: Apoptosis in freshly isolated primary MCL cells with or without depsipeptide pre-treatment; type: cell-based, human; details: spontaneous apoptosis 23.4±2.9%
Experimental: Cell lines were also pre-incubated for 30 min with a TRAIL-R1 blocking Ab and a TRAIL-R2 neutralizing Ab from Alexis and R&D systems, respectively, prior to exposure to TRAIL. Freshly isolated cells from patients with MCL were isolated, purified and incubated with different forms of TRAIL as described above for CLL cells. Samples were either analyzed immediately for apoptosis or stored at −80° C. for subsequent Western blotting. Other methods and reagents were as described (Inoue (2004 Cell Death Differ 11 Suppl 2, S193-206); MacFarlane et al., 2005 ibid).
(§1) Apoptosis was quantified by phosphatidylserine (PS) externalization in the presence of propidium iodide as described (MacFarlane et al., 2002 ibid.). Samples for Western blot analysis were prepared and caspase processing detected as described (Inoue et al., 2004 ibid.; MacFarlane et al., 2005 ibid.).
We also obtained three samples from patients with mantle cell lymphoma (MCL), an incurable and aggressive disease that accounts for ˜6% of all non-Hodgkin's lymphoma. There are no standard treatments for MCL and the prognosis is very poor particularly for the blastoid variant. MCL cells were isolated and exposed to the different forms of TRAIL after pre-treatment for 16 h with depsipeptide (5 nM).

[2] = tested on: primary CLL cells; assay: Apoptosis in freshly isolated CLL cells after depsipeptide; type: cell-based, human; details: depsipeptide 10 nM 16 h, then 6 h ligand or antibody, FIG. 2C
Experimental: (§2) After exposure of the cells for 30 min, DISC complexes were isolated and analyzed for the indicated proteins by Western blotting. To provide an unstimulated receptor control (u/s), biotinylated wt or mutant TRAIL was added to lysate from untreated cells. C: Freshly isolated cells from patients with CLL were incubated for 16 h either alone or in the presence of depsipeptide (10 nM). […] The different symbols used indicate data from six individual patients and the solid line indicates the Mean.
(§3) Ramos, an Epstein-Barr virus-negative Burkitt's lymphoma cell line, and Jurkat T cells (clone E6-1) were cultured as described (MacFarlane et al (2005 Cell Death and Differentiation vol 12 pages 773-782)). Blood samples were obtained from CLL patients, with patient consent and local ethical committee approval and CLL cells purified as described (MacFarlane et al (2002 Oncogene 21, 6809-6818). Cells were incubated for 16 h with depsipeptide (10 nM), provided by Dr. E. Sausville (NCI, USA). Cells were then cultured for a further 6 h with either HGSETR1 or HGS-ETR2, agonistic mAbs to TRAIL-R1 or -R2, respectively (Human Genome Sciences, Rockville, Md.), His-TRAIL-LE (a recombinant TRAIL with low endotoxin—Alexis Corporation, Nottingham, UK), His-TRAIL, a similar form of human recombinant TRAIL (MacFarlane et al (1997 J Biol Chem 272, 25417-25420)) but not further purified to reduce endotoxin levels or a mutant form of His-TRAIL as described (MacFarlane et al., 2005 ibid.). Cell lines were also pre-incubated for 30 min with a TRAIL-R1 blocking Ab and a TRAIL-R2 neutralizing Ab from Alexis and R&D systems, respectively, prior to exposure to TRAIL. Freshly isolated cells from patients with MCL were isolated, purified and incubated with different forms of TRAIL as described above for CLL cells. Samples were either analyzed immediately for apoptosis or stored at −80° C. for subsequent Western blotting. Other methods and reagents were as described (Inoue (2004 Cell Death Differ 11 Suppl 2, S193-206); MacFarlane et al., 2005 ibid).
as §1

[3] = tested on: Jurkat cells; assay: Caspase-8 and -3 processing by Western blot in Jurkat cells; type: cell-based; details: FIG. 1D
Experimental: (§4) Cells were also exposed to HGS-ETR1 or HGSETR2 (1 μg ml^−1). C: Ramos or Jurkat cells were pre-incubated for 30 min either alone or with TRAIL-R1 blocking Ab or TRAIL-R2 neutralizing Ab (5 μg ml^−1). […] D: Ramos and Jurkat cells were exposed to wt TRAIL or TRAIL mutants as described above and processing of caspase-3 and -8 determined by Western blot analysis. The asterisk indicates a non-specific band. The lower panel of the blot for detection of the caspase-8 p18 subunit was exposed for twice as long as the upper panel. Apoptosis was assessed by phosphatidylserine externalization and results expressed as the Means±SEM of at least 3 separate determinations.
as §1
(§5) To confirm that the mutants were inducing apoptosis, we examined their effects on the processing of caspase-8, the apical caspase in death receptor-induced apoptosis and caspase-3, an effector caspase.

[4] = tested on: TRAIL DISC in Ramos cells; assay: DISC analysis with biotinylated TRAIL in Ramos cells; type: cell-based; details: biotinylated ligand 500 ng ml^−1, 30 min
Experimental: as §2
(§6) Ramos or Jurkat cells (5×10^7 cells per treatment) were exposed to biotin-tagged recombinant His-TRAIL (biotinylated TRAIL) or one of its mutant forms (500 ng ml^−1) for 30 min and then DISC formation assessed as described previously (MacFarlane et al., 2002 ibid.).

[5] = tested on: Ramos cells; assay: Apoptosis by phosphatidylserine (PS) externalization in Ramos cells; type: cell-based; details: for % PS+ cells, Ramos: 4 h exposure, 500 ng ml^−, Mean ± SEM of at least three determinations; for ability to induce apoptosis in Ramos cells (in words): PS externalization, compared with wt TRAIL
Experimental: as §4, §3, §1
Ramos and Jurkat T cells (clone E6-1) were cultured as described (MacFarlane et al, 2005 ibid.). The breast tumour cell line, MCF-7 (clone F43) was cultured as described previously (MacFarlane et al., 2000 J. Cell Biol. 148, 1239-1254). Cells were cultured for either 4 h (Ramos and Jurkat) or 6 h (MCF-7) with His-TRAIL (MacFarlane et al, 1997 J Biol Chem 272, 25417-25420), HGS-ETR1 or HGS-ETR2 (Human Genome Sciences), or a mutant form of His-TRAIL (MacFarlane et al, 2005 ibid.). Samples were analyzed for apoptosis, Western blotting, or TRAIL DISC activation as described (MacFarlane et al, 2005 ibid.; MacFarlane et al. 2002 Oncogene 21, 6809-6818). Mutants of His-TRAIL (residues 95-281) were generated using the Quik-Change site-directed mutagenesis kit (Stratagene, Calif.), confirmed by DNA sequencing, expressed in E. coli and purified as described (MacFarlane et al, 1997 ibid.). For siRNA targeting of TRAIL-R1/-R2, MCF-7 cells were seeded into six-well plates immediately prior to effectene-mediated RNAi transfection with either a negative control siRNA (30 nM, Ambion, #4611), or preannealed siRNA oligonucleotides for TRAIL-R1 or TRAIL-R2 (30 nM, Ambion), with the sequence and validity described (Ren et al, 2004 Mol. Biol. Cell vol 15 pp 5064-5074). After 40 h of transfection the cells were collected and total TRAIL-R1 or TRAIL-R2 levels assessed. […]

[6] = tested on: Ramos cells; assay: Caspase-8 and -3 processing by Western blot in Ramos cells; type: cell-based; details: FIG. 1D
Experimental: as §4, §1, §5

[7] = tested on: TRAIL DISC in Jurkat cells; assay: DISC analysis with biotinylated TRAIL in Jurkat cells; type: cell-based; details: biotinylated ligand 500 ng ml^−1, 30 min
Experimental: as §2, §6

[8] = tested on: Jurkat cells; assay: Apoptosis by phosphatidylserine (PS) externalization in Jurkat cells; type: cell-based; details: for % PS+ cells, Jurkat: 4 h exposure, 500 ng ml^−, Mean ± SEM of at least three determinations; for ability to induce apoptosis in Jurkat cells (in words): PS externalization, compared with wt TRAIL
Experimental: as §4, with “determinations. […]” for “determinations.”
as §1
Ramos and Jurkat T cells (clone E6-1) were cultured as described (MacFarlane et al, 2005 ibid.). The breast tumour cell line, MCF-7 (clone F43) was cultured as described previously (MacFarlane et al., 2000 J. Cell Biol. 148, 1239-1254). Cells were cultured for either 4 h (Ramos and Jurkat) or 6 h (MCF-7) with His-TRAIL (MacFarlane et al, 1997 J Biol Chem 272, 25417-25420), HGS-ETR1 or HGS-ETR2 (Human Genome Sciences), or a mutant form of His-TRAIL (MacFarlane et al, 2005 ibid.). Samples were analyzed for apoptosis, Western blotting, or TRAIL DISC activation as described (MacFarlane et al, 2005 ibid.; MacFarlane et al. 2002 Oncogene 21, 6809-6818). Mutants of His-TRAIL (residues 95-281) were generated using the Quik-Change site-directed mutagenesis kit (Stratagene, Calif.), confirmed by DNA sequencing, expressed in E. coli and purified as described (MacFarlane et al, 1997 ibid.). For siRNA targeting of TRAIL-R1/-R2, MCF-7 cells were seeded into six-well plates immediately prior to effectene-mediated RNAi transfection with either a negative control siRNA (30 nM, Ambion, #4611), or preannealed siRNA oligonucleotides for TRAIL-R1 or TRAIL-R2 (30 nM, Ambion), with the sequence and validity described (Ren et al, 2004 Mol. Biol. Cell vol 15 pp 5064-5074). After 40 h of transfection the cells were collected and total TRAIL-R1 or TRAIL-R2 levels assessed. Where indicated, RNAi transfected MCF-7 cells were either left untreated or exposed to wt-TRAIL and apoptosis assessed by the extent of Bax activation, determined using the conformation specific Bax MAb, clone 3 (Dewson et al, 2003 Oncogene vol 22 pp 2643-54).

| Molecule | apoptosis, depsipeptide alone ([1]; depsipeptide 5 nM 16 h) [%] | sensitization of CLL cells to induced apoptosis by depsipeptide [2] | processing of caspases-8 and -3 [3] | DISC formation: receptor bound, FADD and caspase-8 recruitment [4] | % PS+ cells, Ramos [5] [%] | ability to induce apoptosis in Ramos cells (in words) [5] | processing of caspase-8 and caspase-3 [6] | DISC formation: receptor bound, FADD and caspase-8 recruitment [7] | inhibition of induced apoptosis by TRAIL-R1 blocking Ab ([8]; 30 min pre-incubation with Ab (5 μg ml^−1)) | % PS+ cells, Jurkat [8] [%] | ability to induce apoptosis in Jurkat cells (in words) [8] | apoptosis, ligand alone ([1]; no depsipeptide) [%] |
| --- | --- | --- | --- | --- | --- | --- | --- | --- | --- | --- | --- | --- |
| C/C=C1\NC(=O)[C@H]2CSSCC/C=C/[C@H](CC(=O)N[C@H](C(C)C)C(=O)N2)OC(=O)[C@H](C(C)C)NC1=O [depsipeptide, reference compound] | 35.4±5 | – | – | – | – | – | – | – | – | – | – | – |
| TRAIL.R2-6: His-TRAIL (95-281) with 189Gln, 191Lys, 193Arg, 264Arg, 266Leu, 267Gln; TRAIL-R2 selective mutant (protein, biotin (site not stated) in the DISC analysis only; not biotinylated in the apoptosis assays) TSEETISTVQEKQQNISPLVRERGPQRVAAHITGTRGRSNTLSSPNSKNEKALGRKINSWESSRSGHSFLSNLHLRNGELVIHEKGFYYIYSQTQFKFREEIKENTKNDKQMVQYIYKYTSYPDPILLMKSARNSCWSKDAEYGLYSIYQGGIFELKENDRIFVSVTNERLLQMDHEASFFGAFLVG | – | lack of activity and not | most potent | failed to recruit FADD or caspase-8 to the DISC | 9.4 ± 1.6 | not in Ramos cells | not | bound TRAIL-R2 extensively in the DISC | not | 58.4 ± 11.6 | potently induced apoptosis | – |
| wild type: His-tagged human recombinant TRAIL residues 95-281, wild type sequence (protein, biotin (site not stated) in the DISC analysis only; not biotinylated in the apoptosis assays) TSEETISTVQEKQQNISPLVRERGPQRVAAHITGTRGRSNTLSSPNSKNEKALGRKINSWESSRSGHSFLSNLHLRNGELVIHEKGFYYIYSQTYFRFQEEIKENTKNDKQMVQYIYKYTSYPDPILLMKSARNSCWSKDAEYGLYSIYQGGIFELKENDRIFVSVTNEHLIDMDHEASFFGAFLVG | – | sensitized CLL cells | most potent | bound both TRAIL-R1 and -R2, and recruited FADD and caspase-8 | 41.8 ± 5.2 | – | induced the processing | bound TRAIL-R2 extensively in the DISC | – | – | – | 25.5±3.8 |
| TRAIL.R1-6: His-TRAIL (95-281) with 189Ala, 193Ser, 199Val, 201Arg, 213Trp, 215Asp; proposed TRAIL-R1 selective mutant of Kelley et al. (protein, biotin (site not stated) in the DISC analysis only; not biotinylated in the apoptosis assays) TSEETISTVQEKQQNISPLVRERGPQRVAAHITGTRGRSNTLSSPNSKNEKALGRKINSWESSRSGHSFLSNLHLRNGELVIHEKGFYYIYSQTAFRFSEEIKEVTRNDKQMVQYIYKWTDYPDPILLMKSARNSCWSKDAEYGLYSIYQGGIFELKENDRIFVSVTNEHLIDMDHEASFFGAFLVG | – | – | – | failed to recruit FADD or caspase-8 to the DISC | 13.7 ± 1.3 | largely inactive | – | bound neither TRAIL-R1 nor -R2 | – | 6.4 ± 0.8 | inactive | – |
